US20250051446A1 (OSE IMMUNOTHERAPEUTICS, published 2025)

Target: T1, human CD28 on peripheral blood CD3+ T lymphocytes (human, UniProt P10747 19-220)
T1 construct: whole, on cells; Target of the receptor occupancy flow cytometry assay on blood T cells of study subjects; also called CD28 receptor
Assay: Kd recalculated in the PK/target engagement model from receptor occupancy observed by flow cytometry in humans (cohort A); not a direct in vitro measurement

Kd: ~0.3 nM
B1: FR104, humanized pegylated monovalent anti-CD28 Fab' antibody fragment (Fab, V domains shown)
VH: QVQLQQSGAELKKPGASVKVSCKASGYTFTEYIIHWIKLRSGQGLEWIGWFYPGSNDIQYNAQFKGKATLTADKSSSTVYMELTGLTPEDSAVYFCARRDDFSGYDALPYWGQGTLVTVSA
VL: DIQMTQSPSSLSASVGDRVTITCKTNENIYSNLAWYQQKDGKSPQLLIYAATHLVEGVPSRFSGSGSGTQYSLTISSLQPEDFGNYYCQHFWGTPCTFGGGTKLEIKR
modifications: pegylated at its C-terminus: bi-branched 2x20 kDa PEG linked to the C-terminal cysteine via a maleimide ring
notes: also called FR104-PEG; anti-CD28.3 Fab
